This is an account of results in publication PMC7890063, “Bioinformatics-aided identification, characterization and applications of mushroom linalool synthases” (Communications Biology, 2021).

One data set deals with Ap.LS (Agrped1_689675). The data set is described as follows: PPi release, EnzChek pyrophosphate assay. The class given is biochemical, Agrocybe pediades. Conditions: 37 °C, 1 h; enzyme 71.2% pure; product (R)-linalool; read-out: Monoterpene synthase. From the text: PPi release, EnzChek pyrophosphate assay on Ap.LS (Agrped1_689675)
The next data set has as its target T1, Sc.LNS (Streptomyces clavuligerus, UniProt D5SL78).
T1 construct: gene SCLAV_p1185; codon-optimised gene in pET-11a, expressed in E. coli with mevalonate pathway, not purified
T1 sequence (D5SL78 1-329): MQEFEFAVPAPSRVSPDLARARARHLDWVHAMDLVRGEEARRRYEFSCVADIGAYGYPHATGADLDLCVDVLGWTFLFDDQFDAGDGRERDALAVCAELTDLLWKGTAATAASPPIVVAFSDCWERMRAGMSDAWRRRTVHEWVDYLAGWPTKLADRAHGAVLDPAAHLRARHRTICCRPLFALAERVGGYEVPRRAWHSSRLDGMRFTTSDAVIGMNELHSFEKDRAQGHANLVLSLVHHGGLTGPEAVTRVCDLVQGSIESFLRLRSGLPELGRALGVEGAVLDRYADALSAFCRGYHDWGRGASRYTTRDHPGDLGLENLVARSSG
The data set is described as follows: product formation in E. coli, GC-MS. The class given is cell-based. Conditions: E. coli with mevalonate pathway; product nerolidol.

Substrate in data set [1]: CC(C)=CCC/C(C)=C/CC/C(C)=C/CO[P@@](=O)(O)OP(=O)(O)O
As to the kind of experiment: PPi release, EnzChek pyrophosphate assay. It counts as biochemical, Cyclocybe aegerita. Conditions: 37 °C, 1 h, enzyme 16.3% pure, product nerolidol. An excerpt: (§1) PPi release, EnzChek pyrophosphate assay on Aa.LNS (AAE3_109435)

Substrate in data set [2]: CC(C)=CCC/C(C)=C/COP(=O)(O)OP(=O)(O)O
The data set is described as follows: PPi release, EnzChek pyrophosphate assay. It counts as biochemical, Cyclocybe aegerita. Conditions: 37 °C, 1 h, enzyme 16.3% pure, product (R)-linalool.
Source text: as §1

Take `CC(C)=CCC/C(C)=C/COP(=O)(O)OP(=O)(O)O` [GPP]: the Km in the data set with Ap.LS (Agrped1_689675) amounted to 3.8 ± 0.7 µM.
Consider `CC(C)=CCC/C(C)=C/CC/C(C)=C/COP(=O)(O)OP(=O)(O)O` [(E,E)-FPP], for which the “product formation in E. coli, GC-MS” value at Sc.LNS is recorded as “Sc.LNS produced a larger amount of nerolidol than linalool in E. coli”.

B1: Aa.LNS (AAE3_109435) (Cyclocybe aegerita) (protein)
chain: MHSSTQLFTHSPTKMQIILPDLLCSWGYKGFLNPHYEGAKAESNTWIRPLVVKLFDERGQKAFAKDYTGLLASMTYPHHNKEFLCVACDMMNLFFVYDEYTDITPPETAQRLAKIVVNAMRNPDEIAALGEDSIGTMTKQFWRRAMTLLPPNGCNSESCIQHFIDYTEEYLTAVTREACDRSSGSVHAVKDYLAMRRATSGAGLMVGLLEFGLDLPEEVMKHEVIQELSTGAIDMYCLLNDMHSYASELSSGQASHNVITVVMHERNLSLQEAFDWLASYAAGVVKGFKTNLNRVPSFSELEDHSLHGEGMLRDRIQRYIDGLGQAVRAEDDWAFETTRYHGQNGPQIKLTRMLTIRPQVKDNYAKQAPRVEAPERPMLLEVRS
Turning to B1, in data set [1], the Km came out at 9.0 ± 2.3 µM; the kcat (commonly the number of substrate molecules converted per active site and unit of time at saturation) was found to be 0.055 ± 0.005 s⁻¹; the kcat/Km (usually the second-order rate constant that governs catalysis at low substrate concentration) came to 6670 M⁻¹ s⁻¹. In data set [2], the Km was found to be 6.7 ± 4.6 µM, the kcat worked out at 0.00833 ± 0.00167 s⁻¹ and the specificity constant (kcat/Km) turned out to be 1670 M⁻¹ s⁻¹.
